Test results reported in patent US20230079150A1, “METHODS FOR PREVENTION OR TREATMENT OF VIRUS-INDUCED ORGAN INJURY OR FAILURE WITH IL-22 DIMER” (priority 2020, published 2023).
Read-outs that look alike come from different tables or passages of the source.

Legend:
C57BL/6 mice [1] = experiment: LPS acute lung injury mouse model: BAL inflammatory mediators (Milliplex cytokine panel); type: in vivo; details: low dose LPS; F-652 4 μg i.v.; day 4
Description: (§1) After approval from the Tulane University, Institutional Animal Care and Use Committee (protocol ID 607), equal numbers of male and female, 6-8 week old C57BL/6 mice (Charles River Laboratories, Cambridge, Mass.) were given acute lung injury (ALI) via intra-tracheally administered LPS. After obtaining appropriate depth of anesthesia using isoflurane, the high-dose LPS group (HDG) received 100 μg of LPS administered intra-tracheally. Approximately 30 minutes after LPS administration, 4 μg of F-652 was administered via tail vein injection (n=11), then compared to animals receiving sham injection (n=8) with phosphate-buffered saline (PBS). In the low-dose LPS group (LDG), 33.3 μg of LPS was administered intra-tracheally. F-652 was again administered at 30 minutes (n=9) and compared to sham injected animals (n=9). The Interleukin-22:Fc (F-652) protein is a recombinant fusion protein (F-652) (Evive Biotech, Shanghai, China) with two human IL-22 molecules linked to the Fc portion of human immunoglobulin G2, which extends the half-life of the molecule.
(§2) Euthanasia and bronchoalveolar lavage (BAL) was carried out on post-injury day 4. After obtaining appropriate levels of anesthesia with inhaled isoflurane, the trachea was cannulated using a 26 gauge needle and BAL was performed with three successive washes using 1 mL of PBS. Next, a small segment of the left lower lobe was removed and saved for RNA isolation. Finally, 1 cc of 4% paraformaldehyde was injected to the lung for fixation.
(§3) The BAL fluid was then centrifuged at 500×gravity for 5 minutes. Cells were obtained from the BAL after centrifuge and cell counts performed. Cells were then affixed to glass slides and stained with Wright's stain. To quantify protein in the BAL supernatant, a Bradford protein assay (Bio-Rad Laboratories) was performed. Protein was quantified by measuring absorbance at 595 nm on a BMG Labtech FLUOstar Optima plate reader. In addition, the BAL supernatant was used to measure pro-inflammatory cytokines using a Milliplex Mouse Cytokine/Chemokine Magnetic Bead Panel (Millipore Sigma). The 32 cytokines measured included Eotaxin, Granulocyte Colony-Stimulating Factor (G-CSF), Granulocyte-Monocyte Colony-Stimulating Factor (GM-CSF), Interferon-γ (IFN-γ), Interleukin-1α (IL-1α), IL-1, IL-2, IL-3, IL-4, IL-5, IL-6, IL-7, IL-9, IL-10, IL-12 (p40 segment), IL-12 (p70 segment), IL-13, IL-15, IL-17, Interferon-γ induced protein 10 (IP-10), keratinocyte chemoattractant (KC), leukemia inhibitory factor (LIF), lipopolysaccharide-induced CXC chemokine (LIX), monocyte chemoattractant protein-1 (MCP-1), macrophage colony-stimulating factor (M-CSF), monokine induced by gamma-interferon (MIG), MIP-1α, macrophage inflammatory protein-1β/CCL4 (MIP-1β), MIP-2, regulated upon activation, normal T-cell expressed and presumably secreted (RANTES), tumor necrosis factor-α (TNF-α), vascular endothelial growth factor (VEGF). Human IL-22 was measured using an IL-22 Human ELISA kit (ThermoFisher Scientific). Mouse IL-22 was measured using an IL-22 Mouse/Rat Quantikine ELISA kit (R&D Systems).

C57BL/6 mice [2] = experiment: LPS acute lung injury mouse model: BAL cell counts; type: in vivo; details: for BAL total cell counts: F-652 4 μg tail vein at 30 min
Description: as §1, §2, §3

SARS-CoV-2 = type: cell-based, human; details: for sgm-N RNA copies compared to no F-652 treatment: MOI 0.1, 48 hours post challenge

B1: F-652: recombinant IL-22 dimer consisting of two monomeric subunits each comprising a sequence shown in SEQ ID NO: 24 (protein)
chain 1: APISSHCRLDKSNFQQPYITNRTFMLAKEASLADNNTDVRLIGEKLFHGVSMSERCYLMKQVLNFTLEEVLFPQSDRFQPYMQEVVPFLARLSNRLSTCHIEGDDLHIQRNVQKLKDTVKKLGESGEIKAIGELDLLFMSLRNACIGSGGGSGGGGSGGGGSVECPPCPAPPVAGPSVFLFPPKPKDTLMISRTPEVTCVVVDVSHEDPEVQFNWYVDGVEVHNAKTKPREEQFNSTFRVVSVLTVVHQDWLNGKEYKCKVSNKGLPASIEKTISKTKGQPREPQVYTLPPSREEMTKNQVSLTCLVKGFYPSDIAVEWESNGQPENNYKTTPPMLDSDGSFFLYSKLTVDKSRWQQGNVFSCSVMHEALHNHYTQKSLSLSPGK
chain 2: B1 chain 1
modifications: homodimer
C57BL/6 mice [1]
  Granulocyte-Macrophage Colony-Stimulating Factor in BAL: 0.00 ± 0.00 pg/mL
  Interferon-γ in BAL: 1.15 ± 0.42 pg/mL
  Interferon-γ-Induced Protein-10 in BAL: 12.94 ± 3.54 pg/mL
  Interleukin-1α in BAL: 61.31 ± 12.36 pg/mL
  Interleukin-1β in BAL: 0.01 ± 0.01 pg/mL
  Interleukin-2 in BAL: 6.77 ± 1.75 pg/mL
  Interleukin-3 in BAL: 0.00 ± 0.00 pg/mL
  Interleukin-4 in BAL: 0.00 ± 0.00 pg/mL
  Interleukin-5 in BAL: 0.00 ± 0.00 pg/mL
  Interleukin-6 in BAL: 0.95 ± 0.62 pg/mL
  Interleukin-7 in BAL: 0.00 ± 0.00 pg/mL
  Interleukin-9 in BAL: 154.50 ± 37.46 pg/mL
  Interleukin-10 in BAL: 19.91 ± 6.56 pg/mL
  Interleukin-12 (p40) in BAL: 6.87 ± 1.88 pg/mL
  Interleukin-12 (p70) in BAL: 0.00 ± 0.00 pg/mL
  Interleukin-13 in BAL: 2.69 ± 0.93 pg/mL
  Interleukin-15 in BAL: 0.00 ± 0.00 pg/mL
  Interleukin-17 in BAL: 0.40 ± 0.06 pg/mL
  Keratinocyte Chemoattractant/Growth Regulated Oncogene in BAL: 9.11 ± 2.76 pg/mL
  Macrophage Colony-Stimulating Factor in BAL: 0.00 ± 0.00 pg/mL
  Macrophage Inflammatory Protein-1α in BAL: 15.62 ± 2.03 pg/mL
  Macrophage Inflammatory Protein-1β in BAL: 0.00 ± 0.00 pg/mL
  Macrophage Inflammatory Protein-2 in BAL: 20.45 ± 10.88 pg/mL
  Monocyte Chemoattractant Protein in BAL: 0.00 ± 0.00 pg/mL
  Monocyte Induced by Interferon-γ in BAL: 10.52 ± 4.73 pg/mL
  Tumor Necrosis Factor-α in BAL: 3.01 ± 1.79 pg/mL
  Vascular Endothelial Growth Factor in BAL: 3.01 ± 0.50 pg/mL
C57BL/6 mice [2]; high-dose LPS (100 μg intra-tracheal), day 4, sham 3.15×10^6
  BAL total cell counts: 5.40×10^5 cells
C57BL/6 mice [2]; high-dose LPS, F-652 4 μg tail vein, day 4, sham 2.72×10^6
  BAL macrophage counts: 1.21×10^5 cells
C57BL/6 mice [2]; high-dose LPS, F-652 4 μg tail vein, day 4, sham 8.99×10^5
  BAL neutrophil counts: 3.69×10^4 cells
C57BL/6 mice [2]; high-dose LPS, F-652 4 μg tail vein, day 4, sham 213,225
  BAL lymphocyte counts: 2,163 cells
C57BL/6 mice [2]; low-dose LPS (33.3 μg intra-tracheal), post-injury day 4, sham 433,889
  BAL total cell counts: 364,444 cells
C57BL/6 mice [2]; low-dose LPS, F-652 4 μg tail vein, day 4, sham 6,556
  BAL lymphocyte count: 1,864 cells
C57BL/6 mice [2]; low-dose LPS, F-652 4 μg tail vein, day 4, sham 6,869
  BAL neutrophil count: 1,653 cells
C57BL/6 mice [2]; low-dose LPS, F-652 4 μg tail vein, day 4, sham 429,262
  BAL macrophage count: 290,611 cells
SARS-CoV-2; post-treatment, 100 ng/mL F-652 basolaterally on the day post-viral infection
  sgm-N RNA copies compared to no F-652 treatment: significantly lower
SARS-CoV-2; pre-treatment and post-treatment with 100 ng/mL F-652
  mapping of RNA-seq reads to the SARS-CoV-2 genome compared to no F-652 treatment: reduced mapping
SARS-CoV-2; pre-treatment, 100 ng/mL F-652 for 18 hours before infection
  sgm-N RNA copies compared to no F-652 treatment: significantly lower
